B1: IFRG15 (parent)
chain: INRADYCPECYPDNPANRSLVLPW

Variants of: B1
Experiment: protein stability index of a GFP-peptide fusion (GPS, HEK-293T) (PSI 1-6); higher = more stable
Conditions: c terminus: a fixed tail appended
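Further: lentivirally expressed fusions sorted by FACS into six bins by GFP to DsRed ratio, PSI derived from sequencing read proportions per bin multiplied by bin number.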

Variant | protein stability index
INRADYCPECSPDNPANRSLVLPW [Y11S] | 2.69
INRADYCPECMPDNPANRSLVLPW [Y11M] | 2.15
INRADYCPECKPDNPANRSLVLPW [Y11K] | 2.27
INRADYCPECTPDNPANRSLVLPW [Y11T] | 2.32
INRADYCPECHPDNPANRSLVLPW [Y11H] | 2.22
INRADYCPECLPDNPANRSLVLPW [Y11L] | 1.83
INRADYCPECGPDNPANRSLVLPW [Y11G] | 2.84
INRADYCIECYPDNPANRSLVLPW [P8I] | 1.5
INRADYCLECYPDNPANRSLVLPW [P8L] | 1.85
INRADYCDECYPDNPANRSLVLPW [P8D] | 2.64
INRADYCNECYPDNPANRSLVLPW [P8N] | 1.88
INRADYCFECYPDNPANRSLVLPW [P8F] | 2.1
INRADYCEECYPDNPANRSLVLPW [P8E] | 2.34
INRADYCRECYPDNPANRSLVLPW [P8R] | 1.99
INRADYCGECYPDNPANRSLVLPW [P8G] | 2.67
INRADYCTECYPDNPANRSLVLPW [P8T] | 1.82
INRADYCHECYPDNPANRSLVLPW [P8H] | 2.3
INRADYCCECYPDNPANRSLVLPW [P8C] | 2.07
INRADYCVECYPDNPANRSLVLPW [P8V] | 1.95
INRADYCQECYPDNPANRSLVLPW [P8Q] | 2.48
INRADYCMECYPDNPANRSLVLPW [P8M] | 1.71
INRADYCYECYPDNPANRSLVLPW [P8Y] | 2.48
INRADYCWECYPDNPANRSLVLPW [P8W] | 2.02
INRADYCKECYPDNPANRSLVLPW [P8K] | 2.47

Variant | protein stability index
INRADYCAECYPDNPANRSLVLPW [P8A] | 1.27
INRADYCSECYPDNPANRSLVLPW [P8S] | 2.46
INRADYCPECYPDTPANRSLVLPW [N14T] | 1.6
INRADYCPECYPDQPANRSLVLPW [N14Q] | 1.86
INRADYCPECYPDEPANRSLVLPW [N14E] | 2.64
INRADYCPECYPDKPANRSLVLPW [N14K] | 2.25
INRADYCPECYPDHPANRSLVLPW [N14H] | 2.52
INRADYCPECYPDAPANRSLVLPW [N14A] | 2.31
INRADYCPECYPDIPANRSLVLPW [N14I] | 1.53
INRADYCPECYPDFPANRSLVLPW [N14F] | 1.71
INRADYCPECYPDWPANRSLVLPW [N14W] | 1.03
INRADYCPECYPDMPANRSLVLPW [N14M] | 1.68
INRADYCPECYPDVPANRSLVLPW [N14V] | 2.04
INRADYCPECYPDSPANRSLVLPW [N14S] | 2.72
INRADYCPECYPDRPANRSLVLPW [N14R] | 2
INRADYCPECYPDLPANRSLVLPW [N14L] | 1.67
INRADYCPECYPDGPANRSLVLPW [N14G] | 2.83
INRADYCPECYPDPPANRSLVLPW [N14P] | 2.28
INRADYCPECYPDDPANRSLVLPW [N14D] | 2.52
INRADYCPECYPDYPANRSLVLPW [N14Y] | 2.08
INRADYCPECYPDCPANRSLVLPW [N14C] | 2.2
INRADYCPECYHDNPANRSLVLPW [P12H] | 1.91
INRADYCPECYQDNPANRSLVLPW [P12Q] | 2.11
INRADYCPECYTDNPANRSLVLPW [P12T] | 1.98

Variant | protein stability index
INRADYCPECYIDNPANRSLVLPW [P12I] | 1.56
INRADYCPECYMDNPANRSLVLPW [P12M] | 2.08
INRADYCPECYNDNPANRSLVLPW [P12N] | 1.66
INRADYCPECYWDNPANRSLVLPW [P12W] | 1.72
INRADYCPECYKDNPANRSLVLPW [P12K] | 2.1
INRADYCPECYRDNPANRSLVLPW [P12R] | 2.05
INRADYCPECYYDNPANRSLVLPW [P12Y] | 2.26
INRADYCPECYDDNPANRSLVLPW [P12D] | 2.7
INRADYCPECYCDNPANRSLVLPW [P12C] | 1.69
INRADYCPECYGDNPANRSLVLPW [P12G] | 2.69
INRADYCPECYSDNPANRSLVLPW [P12S] | 2.03
INRADYCPECYVDNPANRSLVLPW [P12V] | 1.84
INRADYCPECYADNPANRSLVLPW [P12A] | 2.04
INRADYCPECYFDNPANRSLVLPW [P12F] | 1.78
INRADYCPECYLDNPANRSLVLPW [P12L] | 1.9
INRADYCPECYEDNPANRSLVLPW [P12E] | 2.46
INRADYCPECYPDNSANRSLVLPW [P15S] | 2.94
INRADYCPECYPDNIANRSLVLPW [P15I] | 2.29
INRADYCPECYPDNWANRSLVLPW [P15W] | 2.19
INRADYCPECYPDNDANRSLVLPW [P15D] | 2.12
INRADYCPECYPDNMANRSLVLPW [P15M] | 2.19
INRADYCPECYPDNLANRSLVLPW [P15L] | 1.97
INRADYCPECYPDNRANRSLVLPW [P15R] | 2.07
INRADYCPECYPDNYANRSLVLPW [P15Y] | 1.84

Variant | protein stability index
INRADYCPECYPDNCANRSLVLPW [P15C] | 2.02
INRADYCPECYPDNFANRSLVLPW [P15F] | 1.44
INRADYCPECYPDNGANRSLVLPW [P15G] | 2.48
INRADYCPECYPDNQANRSLVLPW [P15Q] | 2.1
INRADYCPECYPDNNANRSLVLPW [P15N] | 1.97
INRADYCPECYPDNVANRSLVLPW [P15V] | 1.51
INRADYCPECYPDNAANRSLVLPW [P15A] | 2.9
INRADYCPECYPDNKANRSLVLPW [P15K] | 1.74
INRADYCPECYPDNHANRSLVLPW [P15H] | 2.46
INRADYCPECYPDNEANRSLVLPW [P15E] | 2.58
INRADYCPECYPDNTANRSLVLPW [P15T] | 1.9
INRADYCPECYPDNPDNRSLVLPW [A16D] | 2.37
INRADYCPECYPDNPGNRSLVLPW [A16G] | 2.04
INRADYCPECYPDNPNNRSLVLPW [A16N] | 2.4
INRADYCPECYPDNPMNRSLVLPW [A16M] | 1.85
INRADYCPECYPDNPHNRSLVLPW [A16H] | 1.71
INRADYCPECYPDNPFNRSLVLPW [A16F] | 2.02
INRADYCPECYPDNPINRSLVLPW [A16I] | 1.6
INRADYCPECYPDNPENRSLVLPW [A16E] | 2.42
INRADYCPECYPDNPLNRSLVLPW [A16L] | 1.86
INRADYCPECYPDNPCNRSLVLPW [A16C] | 1.69
INRADYCPECYPDNPKNRSLVLPW [A16K] | 1.94
